Patent publication US20060073571A1

Biological target: recombinant chimeric hLH-R-hCG-β fusion protein (full-length human lutropin hormone receptor, Arg-Ser linker, full-length human chorionic gonadotropin-β) (human)
Experiment: cell-based or functional assay

Chain of recombinant chimeric hLH-R-hCG-β fusion protein (full-length human lutropin hormone receptor, Arg-Ser linker, full-length human chorionic gonadotropin-β) (human) (chain, as listed by the source mutant limits assumed): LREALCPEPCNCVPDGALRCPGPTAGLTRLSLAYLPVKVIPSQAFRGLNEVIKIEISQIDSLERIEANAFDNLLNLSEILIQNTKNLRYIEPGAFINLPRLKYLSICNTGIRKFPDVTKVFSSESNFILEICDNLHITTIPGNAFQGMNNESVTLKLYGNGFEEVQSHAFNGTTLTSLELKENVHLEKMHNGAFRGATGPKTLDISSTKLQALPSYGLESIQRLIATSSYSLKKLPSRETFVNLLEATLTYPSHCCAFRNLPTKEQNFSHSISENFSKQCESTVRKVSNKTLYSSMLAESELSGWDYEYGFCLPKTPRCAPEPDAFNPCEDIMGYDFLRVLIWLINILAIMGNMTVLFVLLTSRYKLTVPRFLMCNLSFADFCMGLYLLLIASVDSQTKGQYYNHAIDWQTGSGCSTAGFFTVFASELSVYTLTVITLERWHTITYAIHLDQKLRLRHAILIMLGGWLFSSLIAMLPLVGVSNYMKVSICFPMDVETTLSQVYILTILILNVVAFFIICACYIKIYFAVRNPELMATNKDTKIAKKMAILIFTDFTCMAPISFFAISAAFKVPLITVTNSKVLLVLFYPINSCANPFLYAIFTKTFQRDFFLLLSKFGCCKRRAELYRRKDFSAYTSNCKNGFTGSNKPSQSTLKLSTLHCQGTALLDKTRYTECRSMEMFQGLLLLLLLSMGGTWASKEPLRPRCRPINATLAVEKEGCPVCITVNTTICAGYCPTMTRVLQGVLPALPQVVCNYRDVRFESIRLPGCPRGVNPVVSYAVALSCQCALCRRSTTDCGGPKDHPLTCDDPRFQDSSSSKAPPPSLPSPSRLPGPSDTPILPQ

Q: How did the intracellular cAMP in transfected Sf9 cells in the absence of hCG turn out when “hCG-β component of the chimeric hLH-R-hCG-β protein (full-length human chorionic gonadotropin-β subunit) (from UniProt P0DN86 21-165) (ligand)” was run?
A: Its intracellular cAMP in transfected Sf9 cells in the absence of hCG is 13.2 pmol/L.
